Read-outs that look alike come from different tables or passages of the source. Values belong to the binder of their own block, whether it stands above or below them.
Tests used:
human ActRIIB [1] = molecular target: T1, human ActRIIB (human, UniProt Q13705 19-137, limits assumed); test: MSD-SET, preliminary
T1 construct: antigen in MSD-SET; also called ACVR2B; ActR2B
T1 sequence: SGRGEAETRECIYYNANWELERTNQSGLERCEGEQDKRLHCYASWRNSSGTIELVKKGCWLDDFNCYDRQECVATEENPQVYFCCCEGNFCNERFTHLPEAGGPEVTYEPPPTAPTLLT

human ActRIIA [2] = molecular target: T2, human ActRIIA (human, UniProt P27037 20-135, limits assumed); test: MSD-SET, preliminary
T2 construct: antigen in MSD-SET; also called ACVR2A; ActR2A
T2 sequence (P27037 20-135 limits assumed): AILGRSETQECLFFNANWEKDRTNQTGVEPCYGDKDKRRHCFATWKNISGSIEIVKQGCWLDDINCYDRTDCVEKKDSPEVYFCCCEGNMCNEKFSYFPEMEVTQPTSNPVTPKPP

human ActRIIB [3] = molecular target: T1, human ActRIIB; test: MSD-SET
human ActRIIA [4] = molecular target: T2, human ActRIIA; test: MSD-SET
[5] = molecular target: T3, ActRIIA and ActRIIB (on TGFB/SMAD SBE Reporter HEK293 cells) (human); test: cell-based or functional assay
human ActRIIB [6] = molecular target: T1, human ActRIIB; test: MSD-SET; remark: listed apart in the source
human ActRIIA [7] = molecular target: T2, human ActRIIA; test: MSD-SET; remark: listed apart in the source
[8] = molecular target: T3, ActRIIA and ActRIIB (on TGFB/SMAD SBE …); test: cell-based or functional assay; remark: listed apart in the source
human ActRIIB [9] = molecular target: T1, human ActRIIB; test: MSD-SET; remark: listed apart in the source
human ActRIIA [10] = molecular target: T2, human ActRIIA; test: MSD-SET; remark: listed apart in the source
human ActRIIB [11] = molecular target: T1, human ActRIIB; test: MSD-SET, Fab KD over IgG KD
human ActRIIA [12] = molecular target: T2, human ActRIIA; test: MSD-SET, Fab KD over IgG KD
human ActRIIB [13] = molecular target: T1, human ActRIIB; test: affinity measurement
human ActRIIB [14] = molecular target: T1, human ActRIIB; test: MSD-SET; remark: listed apart in the source
human ActRIIA [15] = molecular target: T2, human ActRIIA; test: MSD-SET; remark: listed apart in the source
[16] = molecular target: T3, ActRIIA and ActRIIB (on TGFB/SMAD SBE …); test: cell-based or functional assay; remark: listed apart in the source
human ActRIIB [17] = molecular target: T1, human ActRIIB; test: MSD-SET; remark: listed apart in the source
human ActRIIA [18] = molecular target: T2, human ActRIIA; test: MSD-SET; remark: listed apart in the source

Kd (human ActRIIB [1]): 0.0167 nM | Kd (human ActRIIA [2]): 0.142 nM | Kd (human ActRIIB [3]): 0.0013 nM | Kd (human ActRIIA [4]): 0.067 nM | IC50, Activin SMAD RGA [5]: 0.171 nM | IC50, Myostatin SMAD RGA [5]: 0.181 nM | IC50, myostatin inhibition (SMAD RGA) [5]: 0.171 nM | IC90, Activin SMAD RGA [5]: 2.88 nM | IC90, Myostatin SMAD RGA [5]: 1.94 nM | Kd (human ActRIIB [6]): 0.0167 nM | Kd (human ActRIIA [7]): 0.142 nM
B1: Antibody Bebballesgmias (antibody, V domains shown)
VH: QVQLVQSGAEVKKPGSSVKVSCKASGYKFTSSYINWVRQAPGQGLEWMGTINPVSGSTSYAQKFQGRVTITADTSTSTAYMELSSLRSEDTAVYYCARGGWFDYWGQGTLVTVSS
VL: QSALTQPRSVSGSPGQSVTISCTGTSSDVGSYNYVNWYQQHPGKAPKLMIYGVSKRPRGVPDRFSGSKSGNTASLTISGLQAEDEADYYCGTFAGGSYYGVFGGGTKLTVL
notes: full-length IgG

IC50, Activin SMAD RGA [8]: 1.21 nM | IC50, Myostatin SMAD RGA [8]: 2.32 nM | IC50 fold difference (Fab:IgG), Activin SMAD RGA [8]: 2.8 fold | IC50 fold difference (Fab:IgG), Myostatin SMAD RGA [8]: 4.8 fold | Kd (human ActRIIB [9]): 0.026 nM | Kd (human ActRIIA [10]): 0.114 nM | Fold difference (Fab:IgG) (human ActRIIB [11]): 3.1 fold | Fold difference (Fab:IgG) (human ActRIIA [12]): 3.9 fold
B2: Fasnetsküchla Fab (Fab, V domains shown)
VH: QVQLVQSGAEVKKPGASVKVSCKASGYTFTSSYINWVRQAPGQGLEWMGTINAVSGSTSYAQKFQGRVTMTRDTSISTAYMELSRLRSDDTAVYYCARGGWFDYWGQGTLVTVSS
VL: QSALTQPASVSGSPGQSITISCTGTSSDVGSANYVNWYQQHPGKAPKPMIYGVSRRPSGVSNRFSGSKSGNTASLTISGLQAEDEADYYCGTFAGGKYYGVFGGGTKLTVL
notes: Fab

binding result (human ActRIIB [13]): binds | IC50, Activin SMAD RGA [5]: 0.18 nM | IC50, Myostatin SMAD RGA [5]: 0.0875 nM | IC90, Activin SMAD RGA [5]: 3.71 nM | IC90, Myostatin SMAD RGA [5]: 1.23 nM
B3: Antibody Backstoikäs (antibody, V domains shown)
VH: QVQLVQSGAEVKKPGASVKVSCKASGYKFTSSYINWVRQAPGQGLEWMGTINPVSGSTSYAQKFQGRVTMTRDTSISTAYMELSRLRSDDTAVYYCARGGWFDYWGQGTLVTVSS
VL: QSALTQPASVSGSPGQSITISCTGTSSDVGSYNYVNWYQQHPGKAPKLMIYGVSKRPRGVSNRFSGSKSGNTASLTISGLQAEDEADYYCGTFAGGSYYGVFGGGTKLTVL
notes: full-length IgG

IC50, Activin SMAD RGA [8]: 1.58 nM | IC50, Myostatin SMAD RGA [8]: 2.09 nM | IC50 fold difference (Fab:IgG), Activin SMAD RGA [8]: 7.4 fold | IC50 fold difference (Fab:IgG), Myostatin SMAD RGA [8]: 7.9 fold | Kd (human ActRIIB [9]): 0.021 nM | Kd (human ActRIIA [10]): 0.145 nM | Fold difference (Fab:IgG) (human ActRIIB [11]): 4.4 fold | Fold difference (Fab:IgG) (human ActRIIA [12]): 5.2 fold
B4: Biiramooscht Fab (Fab, V domains shown)
VH: QVQLVQSGAEVKKPGASVKVSCKASGYTFTSSYINWVRQAPGQGLEWMGTINPVSGSTSYAQKFQGRVTMTRDTSISTAYMELSRLRSDDTAVYYCARGGWFDYWGQGTLVTVSS
VL: QSALTQPASVSGSPGQSITISCTGTSSDVGSYNYVNWYQQHPGKAPKLMIYGVSKRESGVSNRFSGSKSGNTASLTISGLQAEDEADYYCGTFAGGAYYGVFGGGTKLTVL
notes: Fab

IC50, Activin SMAD RGA [8]: 0.4 nM | IC50, Myostatin SMAD RGA [8]: 0.78 nM | IC50 fold difference (Fab:IgG), Activin SMAD RGA [8]: 4.6 fold | IC50 fold difference (Fab:IgG), Myostatin SMAD RGA [8]: 5.1 fold | Kd (human ActRIIB [9]): 0.006 nM | Kd (human ActRIIA [10]): 0.157 nM | Fold difference (Fab:IgG) (human ActRIIB [11]): 1.1 fold | Fold difference (Fab:IgG) (human ActRIIA [12]): 3.8 fold
B5: Rippla Fab (Fab, V domains shown)
VH: QVQLVQSGAEVRKPGASVKVSCKASGYTFTSSYINWVRQAPGQGLEWMGTINPVSGSTSYAQKFQGRVTMTRDTSISTAYMELSRLRSDDTAVYYCARGGWFDYWGQGTLVTVSS
VL: QSALTQPASVSGSPGQSITISCTGTSSDVGSYNRVNWYQQHPGKAPKLMIYGVSKRESGVSNRFSGSKSGNTASLTISGLQAEDEADYYCGTFAGGRYYGVFGGGTKLTVL
notes: Fab

Kd (human ActRIIB [1]): 0.0293 nM | Kd (human ActRIIB [14]): 0.0129 nM | Kd (human ActRIIA [15]): 0.0404 nM | IC50, Myostatin SMAD RGA [5]: 0.75 nM | IC50 fold difference to bimagrumab, Myostatin SMAD RGA [5]: 0.7 fold | IC90, Activin SMAD RGA [5]: 5.34 nM | IC90, Myostatin SMAD RGA [5]: 14.7 nM | IC90 fold difference to bimagrumab, Activin SMAD RGA [5]: 1.8 fold | IC90 fold difference to bimagrumab, Myostatin SMAD RGA [5]: 0.9 fold | IC95, Activin SMAD RGA [5]: 14.2 nM | IC95, Myostatin SMAD RGA [5]: 41.5 nM | IC95 fold difference to bimagrumab, Activin SMAD RGA [5]: 2.7 fold | IC95 fold difference to bimagrumab, Myostatin SMAD RGA [5]: 1.3 fold | IC99, Activin SMAD RGA [5]: 124 nM | IC99, Myostatin SMAD RGA [5]: 425 nM | IC99 fold difference to bimagrumab, Activin SMAD RGA [5]: 6.7 fold | IC99 fold difference to bimagrumab, Myostatin SMAD RGA [5]: 6.3 fold | IC50, Activin SMAD RGA [16]: 0.46 nM | IC50 fold difference to bimagrumab, Activin SMAD RGA [16]: 0.7 fold | IC90, Activin SMAD RGA [16]: 5.09 nM | IC90 fold difference to bimagrumab, Activin SMAD RGA [16]: 0.8 fold | IC95, Activin SMAD RGA [16]: 12.8 nM | IC95 fold difference to bimagrumab, Activin SMAD RGA [16]: 39.3 fold | IC99, Activin SMAD RGA [16]: 99 nM | IC99 fold difference to bimagrumab, Activin SMAD RGA [16]: 305 fold | Kd (human ActRIIB [6]): 0.0129 nM | Kd (human ActRIIA [7]): 0.0404 nM
B6: Antibody Schwardamaga (antibody, V domains shown)
VH: QVQLVQSGAEVKKPGSSVKVSCKASGYTFTSSYINWVRQAPGQGLEWMGTINAVSGSTSYAQKFQGRVTITADTSTSTAYMELSSLRSEDTAVYYCARGGWFDYWGQGTLVTVSS
VL: QSALTQPRSVSGSPGQSVTISCTGTSSDVGSANYVNWYQQHPGKAPKPMIYGVSRRPSGVPDRFSGSKSGNTASLTISGLQAEDEADYYCGTFAGGKYYGVFGGGTKLTVL
notes: full-length IgG

Kd (human ActRIIB [1]): 0.0508 nM | Kd (human ActRIIA [2]): 0.0345 nM | Kd (human ActRIIB [14]): 0.0055 nM | Kd (human ActRIIA [15]): 0.0342 nM | IC50, Myostatin SMAD RGA [5]: 0.13 nM | IC50 fold difference to bimagrumab, Myostatin SMAD RGA [5]: 4.3 fold | IC90, Activin SMAD RGA [5]: 2.16 nM | IC90, Myostatin SMAD RGA [5]: 6.63 nM | IC90 fold difference to bimagrumab, Activin SMAD RGA [5]: 4.3 fold | IC90 fold difference to bimagrumab, Myostatin SMAD RGA [5]: 2 fold | IC95, Activin SMAD RGA [5]: 8.86 nM | IC95, Myostatin SMAD RGA [5]: 35 nM | IC95 fold difference to bimagrumab, Activin SMAD RGA [5]: 4.3 fold | IC95 fold difference to bimagrumab, Myostatin SMAD RGA [5]: 1.6 fold | IC99, Activin SMAD RGA [5]: 200 nM | IC99, Myostatin SMAD RGA [5]: 2000 nM | IC99 fold difference to bimagrumab, Activin SMAD RGA [5]: 4.1 fold | IC99 fold difference to bimagrumab, Myostatin SMAD RGA [5]: 1.3 fold | IC50, Activin SMAD RGA [16]: 0.16 nM | IC50 fold difference to bimagrumab, Activin SMAD RGA [16]: 2 fold | IC90, Activin SMAD RGA [16]: 1.81 nM | IC90 fold difference to bimagrumab, Activin SMAD RGA [16]: 0.3 fold | IC95, Activin SMAD RGA [16]: 4.84 nM | IC95 fold difference to bimagrumab, Activin SMAD RGA [16]: 14.9 fold | IC99, Activin SMAD RGA [16]: 19.3 nM | IC99 fold difference to bimagrumab, Activin SMAD RGA [16]: 59.5 fold | Kd (human ActRIIB [6]): 0.0055 nM | Kd (human ActRIIA [7]): 0.0342 nM
B7: Antibody Soidawürstle (antibody, V domains shown)
VH: QVQLVQSGAEVRKPGSSVKVSCKASGYTFTSSYINWVRQAPGQGLEWMGTINPVSGSTSYAQKFQGRVTITADTSTSTAYMELSSLRSEDTAVYYCARGGWFDYWGQGTLVTVSS
VL: QSALTQPRSVSGSPGQSVTISCTGTSSDVGSYNRVNWYQQHPGKAPKLMIYGVSKRESGVPDRFSGSKSGNTASLTISGLQAEDEADYYCGTFAGGRYYGVFGGGTKLTVL
notes: full-length IgG; also called Soidawüsrstel

IC50, Activin SMAD RGA [8]: 0.43 nM | IC50, Myostatin SMAD RGA [8]: 0.55 nM | Kd (human ActRIIB [3]): 0.0082 nM | Kd (human ActRIIA [4]): 0.0232 nM | Kd (human ActRIIB [17]): 0.01 nM | Kd (human ActRIIA [18]): 0.02 nM | IC50, Myostatin SMAD RGA [5]: 0.653 nM | IC90, Activin SMAD RGA [5]: 2.51 nM | IC90, Myostatin SMAD RGA [5]: 5.59 nM | Kd (human ActRIIB [9]): 0.01 nM | Kd (human ActRIIA [10]): 0.02 nM
B8: Antibody Ochsamaulsalat (antibody, V domains shown)
VH: QVQLVQSGAEVKKPGASVKVSCKASGYTFTSSYINWVRQAPGQGLEWMGTINAVSGSTSYAQKFQGRVTMTRDTSISTAYMELSRLRSDDTAVYYCARGGWFDYWGQGTLVTVSS
VL: QSALTQPASVSGSPGQSITISCTGTSSDVGSRNYVNWYQQHPGKAPKLMIYGVSKRESGVSNRFSGSKSGNTASLTISGLQAEDEADYYCGTFAGGDYYGVFGGGTKLTVL
notes: full-length IgG

Reference: patent US20250243286A1 (SIXPEAKS BIO, published 2025)
